Measurements as given in patent US20070054328A1 (published 2007).

Legend:
[1] = target: T1, endogenous PTPL1 (Protein Tyrosine Phosphatase Like-Protein-1) of 293 cells (human, UniProt Q12923 1-2485, limits assumed); assay: cell-based or functional assay
[2] = target: T1, endogenous PTPL1 (Protein Tyrosine …); assay: GST pull-down from 293 cells; pNPP phosphatase assay and anti-PTPL1 immunoblot
Method: Rates or amounts of para-nitrophenol production were calculated using a standard curve generated from known amounts of para-nitrophenol. For the insulin receptor peptide assay a 50 μl reaction was set up containing 20 mM Tris pH7.4, 150 mM NaCl, 1 mM DTT, 20 μM of the tyrosine-phosphorylated peptide and 100 ng of GST-PTPL1. After 10 min at room temperature, the reactions were terminated by the addition of 0.1 ml of BIOMOL green reagent and after an additional 20 min the amount of phosphate liberated was quantitated by absorbance at 620 nm and measured against inorganic phosphate standards. In all assays we ensured that the rate of para-nitrophenol formation or the dephosphorylation of the insulin receptor peptide, was linear with time.
Immunoblotting. For blots of total cell lysates or tissues 20 μg of protein was used. For the purified GST fusion proteins to detect association of endogenous PTPL1, 10 μg of fusion protein was employed for the PTPL1 blots and 0.1 μg for the GST blots. Samples were subjected to SDS/PAGE and transferred to nitrocellulose. […]

T1 sequence (Q12923 whole entry): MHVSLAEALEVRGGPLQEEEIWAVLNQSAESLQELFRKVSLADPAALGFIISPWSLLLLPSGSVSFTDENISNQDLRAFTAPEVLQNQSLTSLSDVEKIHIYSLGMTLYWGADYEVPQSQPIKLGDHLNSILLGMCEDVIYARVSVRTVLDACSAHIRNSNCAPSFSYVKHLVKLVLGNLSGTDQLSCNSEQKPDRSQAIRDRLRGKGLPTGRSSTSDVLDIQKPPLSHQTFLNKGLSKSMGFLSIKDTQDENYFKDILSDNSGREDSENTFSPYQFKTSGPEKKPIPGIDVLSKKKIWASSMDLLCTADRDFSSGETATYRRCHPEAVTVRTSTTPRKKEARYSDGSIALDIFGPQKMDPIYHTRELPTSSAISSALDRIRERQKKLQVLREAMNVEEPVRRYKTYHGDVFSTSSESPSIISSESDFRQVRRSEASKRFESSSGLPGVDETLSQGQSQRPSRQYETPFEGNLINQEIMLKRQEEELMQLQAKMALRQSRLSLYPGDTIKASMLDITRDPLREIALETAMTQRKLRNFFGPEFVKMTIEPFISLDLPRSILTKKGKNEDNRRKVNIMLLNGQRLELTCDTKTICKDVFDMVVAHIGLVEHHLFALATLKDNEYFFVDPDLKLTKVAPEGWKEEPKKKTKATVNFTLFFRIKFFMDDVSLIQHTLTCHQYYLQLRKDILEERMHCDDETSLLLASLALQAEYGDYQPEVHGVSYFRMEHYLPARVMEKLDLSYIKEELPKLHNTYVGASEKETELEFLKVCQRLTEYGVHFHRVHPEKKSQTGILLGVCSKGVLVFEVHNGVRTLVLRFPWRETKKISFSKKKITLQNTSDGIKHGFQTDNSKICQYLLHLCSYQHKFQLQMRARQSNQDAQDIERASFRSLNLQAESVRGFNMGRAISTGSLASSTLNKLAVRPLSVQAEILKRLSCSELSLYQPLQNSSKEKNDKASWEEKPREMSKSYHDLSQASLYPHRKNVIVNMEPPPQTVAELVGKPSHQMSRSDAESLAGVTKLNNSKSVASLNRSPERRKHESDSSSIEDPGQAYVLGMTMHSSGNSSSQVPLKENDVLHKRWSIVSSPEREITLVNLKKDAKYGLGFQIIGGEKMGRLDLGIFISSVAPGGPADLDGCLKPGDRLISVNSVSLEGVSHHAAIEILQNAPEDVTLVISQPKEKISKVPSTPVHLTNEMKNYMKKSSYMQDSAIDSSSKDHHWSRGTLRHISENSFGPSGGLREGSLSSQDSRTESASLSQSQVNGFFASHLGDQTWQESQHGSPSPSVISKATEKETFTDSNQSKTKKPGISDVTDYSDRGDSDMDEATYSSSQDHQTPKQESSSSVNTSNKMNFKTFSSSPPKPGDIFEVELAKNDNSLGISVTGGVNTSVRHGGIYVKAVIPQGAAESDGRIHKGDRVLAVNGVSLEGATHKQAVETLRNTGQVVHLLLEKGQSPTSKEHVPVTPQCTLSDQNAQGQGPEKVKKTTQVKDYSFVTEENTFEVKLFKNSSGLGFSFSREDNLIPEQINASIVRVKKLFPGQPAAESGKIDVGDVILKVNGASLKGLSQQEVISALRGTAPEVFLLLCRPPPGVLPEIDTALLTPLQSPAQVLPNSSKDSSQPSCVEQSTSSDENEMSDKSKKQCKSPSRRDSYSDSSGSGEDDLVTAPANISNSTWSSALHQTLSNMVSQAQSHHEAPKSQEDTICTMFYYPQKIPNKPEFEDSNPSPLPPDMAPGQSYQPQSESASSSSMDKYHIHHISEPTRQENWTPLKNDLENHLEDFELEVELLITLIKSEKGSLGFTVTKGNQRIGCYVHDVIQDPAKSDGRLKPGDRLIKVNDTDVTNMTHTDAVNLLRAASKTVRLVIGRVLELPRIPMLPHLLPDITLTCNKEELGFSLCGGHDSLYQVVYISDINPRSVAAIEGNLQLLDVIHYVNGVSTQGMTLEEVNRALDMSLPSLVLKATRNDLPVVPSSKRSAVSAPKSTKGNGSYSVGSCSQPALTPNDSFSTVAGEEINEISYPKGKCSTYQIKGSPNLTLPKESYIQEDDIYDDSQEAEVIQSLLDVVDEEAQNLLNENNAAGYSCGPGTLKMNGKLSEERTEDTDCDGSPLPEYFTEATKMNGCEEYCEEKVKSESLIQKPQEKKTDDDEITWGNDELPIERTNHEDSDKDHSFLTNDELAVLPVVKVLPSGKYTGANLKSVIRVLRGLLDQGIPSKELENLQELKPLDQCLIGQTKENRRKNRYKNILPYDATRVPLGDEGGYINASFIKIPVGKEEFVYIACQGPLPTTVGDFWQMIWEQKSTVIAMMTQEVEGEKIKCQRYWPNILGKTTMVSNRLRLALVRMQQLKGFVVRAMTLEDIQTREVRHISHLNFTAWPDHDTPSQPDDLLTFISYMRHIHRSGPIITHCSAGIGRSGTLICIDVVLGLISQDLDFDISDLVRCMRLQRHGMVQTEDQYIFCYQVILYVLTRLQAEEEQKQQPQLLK

B1: endogenous TAPP1 of 293 cells (other, human, UniProt Q9HB21 1-404, looked up)
chain: MPYVDRQNRICGFLDIEENENSGKFLRRYFILDTREDSFVWYMDNPQNLPSGSSRVGAIKLTYISKVSDATKLRPKAEFCFVMNAGMRKYFLQANDQQDLVEWVNVLNKAIKITVPKQSDSQPNSDNLSRHGECGKKQVSYRTDIVGGVPIITPTQKEEVNECGESIDRNNLKRSQSHLPYFTPKPPQDSAVIKAGYCVKQGAVMKNWKRRYFQLDENTIGYFKSELEKEPLRVIPLKEVHKVQECKQSDIMMRDNLFEIVTTSRTFYVQADSPEEMHSWIKAVSGAIVAQRGPGRSASSEHPPGPSESKHAFRPTNAATATSHSTASRSNSLVSTFTMEKRGFYESLAKVKPGNFKVQTVSPREPASKVTEQALLRPQSKNGPQEKDCDLVDLDDASLPVSDV
For B1, the “pNPP phosphatase activity immunoprecipitated with the anti-PTPL1 antibody compared with the TAPP1 antibody” value [1] was about 6 fold.

B2: GST-FAPP1 (other, UniProt Q9HB20 1-300, looked up)
chain: MEGVLYKWTNYLTGWQPRWFVLDNGILSYYDSQDDVCKGSKGSIKMAVCEIKVHSADNTRMELIIPGEQHFYMKAVNAAERQRWLVALGSSKACLTDTRTKKEKEISETSESLKTKMSELRLYCDLLMQQVHTIQEFVHHDENHSSPSAENMNEASSLLSATCNTFITTLEECVKIANAKFKPEMFQLHHPDPLVSPVSPSPVQMMKRSVSHPGSCSSERSSHSIKEPVSTLHRLSQRRRRTYSDTDSCSDIPLEDPDRPVHCSKNTLNGDLASATIPEESRLMAKKQSESEDTLPSFSS
notes: Control GST fusion expressed in 293 cells; not shown: N-terminal glutathione S-transferase (GST) tag
B2: no binding [2].

B3: GST-DAPP1 (other, UniProt Q9UN19 1-280, looked up)
chain: MGRAELLEGKMSTQDPSDLWSRSDGEAELLQDLGWYHGNLTRHAAEALLLSNGCDGSYLLRDSNETTGLYSLSVRAKDSVKHFHVEYTGYSFKFGFNEFSSLKDFVKHFANQPLIGSETGTLMVLKHPYPRKVEEPSIYESVRVHTAMQTGRTEDDLVPTAPSLGTKEGYLTKQGGLVKTWKTRWFTLHRNELKYFKDQMSPEPIRILDLTECSAVQFDYSQERVNCFCLVFPFRTFYLCAKTGVEADEWIKILRWKLSQIRKQLNQGEGTIRSRSFIFK
notes: Control GST fusion expressed in 293 cells; also called dual adaptor for phosphotyrosine and 3-phosphoinositides; not shown: N-terminal glutathione S-transferase (GST) tag
B3: no binding [2].
